The assay concerns the target SENP3 (endogenous, LO2 hepatocytes) (human (endogenous in LO2), UniProt Q9H4L4 1-574). Nature of the assay: FRET or BRET. A general note: Bioluminescence resonance energy transfer reports proximity on the nanometre scale.

Chain of SENP3 (endogenous, LO2 hepatocytes) (Q9H4L4 whole entry): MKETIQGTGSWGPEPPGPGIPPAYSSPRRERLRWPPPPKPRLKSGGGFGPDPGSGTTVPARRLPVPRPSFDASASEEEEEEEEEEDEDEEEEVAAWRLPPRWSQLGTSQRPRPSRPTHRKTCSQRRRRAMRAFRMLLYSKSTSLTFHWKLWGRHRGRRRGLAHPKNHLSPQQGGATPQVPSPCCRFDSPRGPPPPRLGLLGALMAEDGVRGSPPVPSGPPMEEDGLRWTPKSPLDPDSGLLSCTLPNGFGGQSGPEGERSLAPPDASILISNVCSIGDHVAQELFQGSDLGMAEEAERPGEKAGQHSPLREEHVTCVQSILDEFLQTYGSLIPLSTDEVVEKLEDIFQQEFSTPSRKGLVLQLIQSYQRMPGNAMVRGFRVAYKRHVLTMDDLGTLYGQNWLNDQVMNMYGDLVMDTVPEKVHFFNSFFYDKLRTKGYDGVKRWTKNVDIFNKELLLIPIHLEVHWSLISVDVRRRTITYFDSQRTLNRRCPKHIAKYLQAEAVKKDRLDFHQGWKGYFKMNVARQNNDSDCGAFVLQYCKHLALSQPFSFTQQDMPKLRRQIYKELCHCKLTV

B1: ATP synthase subunit (ATP5F1A) (natural protein, human (endogenous in LO2), UniProt P25705 44-553, looked up)
chain: QKTGTAEMSSILEERILGADTSVDLEETGRVLSIGDGIARVHGLRNVQAEEMVEFSSGLKGMSLNLEPDNVGVVVFGNDKLIKEGDIVKRTGAIVDVPVGEELLGRVVDALGNAIDGKGPIGSKTRRRVGLKAPGIIPRISVREPMQTGIKAVDSLVPIGRGQRELIIGDRQTGKTSIAIDTIINQKRFNDGSDEKKKLYCIYVAIGQKRSTVAQLVKRLTDADAMKYTIVVSATASDAAPLQYLAPYSGCSMGEYFRDNGKHALIIYDDLSKQAVAYRQMSLLLRRPPGREAYPGDVFYLHSRLLERAAKMNDAFGGGSLTALPVIETQAGDVSAYIPTNVISITDGQIFLETELFYKGIRPAINVGLSVSRVGSAAQTRAMKQVAGTMKLELAQYREVAAFAQFGSDLDAATQQLLSRGVRLTELLKQGQYSPMAIEEQVAVIYAGVRGYLDKLEPSKITKFENAFLSHVVSQHQALLGTIRADGKISEQSDAKLKEIVTNFLAGFEA
As for B1, the FRET efficiency is about 25%.

These data come from article PMC8406365 (Acta Biochimica et Biophysica Sinica, 2021).
